Source: patent publication US20220016249A1

What was measured:
[1] = target: IL-2 receptor signaling complex on primary human Treg cells (IL-2Rα expressing; IL-2Rαβγ) (human) (UniProt P01589); assay: cell-based or functional assay; set-up: unit not given beside the values
[2] = target: IL-2 receptor signaling complex on primary human NK cells and CD8+ T cells (IL-2Rβγ) (human) (UniProt P14784); assay: cell-based or functional assay; set-up: unit not given beside the values
Chain of IL-2 receptor signaling complex on primary human NK cells and CD8+ T cells (IL-2Rβγ) (human) (P14784 27-551, chain 1 of 2): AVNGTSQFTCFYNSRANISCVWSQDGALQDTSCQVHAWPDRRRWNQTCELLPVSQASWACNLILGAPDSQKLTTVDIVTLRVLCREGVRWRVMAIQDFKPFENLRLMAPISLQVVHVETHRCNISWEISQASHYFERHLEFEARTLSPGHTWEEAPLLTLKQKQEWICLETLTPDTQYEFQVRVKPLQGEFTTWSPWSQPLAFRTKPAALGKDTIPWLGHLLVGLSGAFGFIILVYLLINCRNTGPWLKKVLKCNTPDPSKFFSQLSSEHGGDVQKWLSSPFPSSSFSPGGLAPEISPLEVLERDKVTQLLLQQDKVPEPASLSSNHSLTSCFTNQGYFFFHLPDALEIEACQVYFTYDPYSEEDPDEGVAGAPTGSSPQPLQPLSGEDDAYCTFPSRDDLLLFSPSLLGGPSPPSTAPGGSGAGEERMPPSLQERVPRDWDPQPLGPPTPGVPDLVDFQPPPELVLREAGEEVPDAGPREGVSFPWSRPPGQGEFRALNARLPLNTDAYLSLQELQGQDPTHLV
Chain of IL-2 receptor signaling complex on primary human NK cells and CD8+ T cells (IL-2Rβγ) (human) (P31785 23-369, chain 2 of 2, further chain): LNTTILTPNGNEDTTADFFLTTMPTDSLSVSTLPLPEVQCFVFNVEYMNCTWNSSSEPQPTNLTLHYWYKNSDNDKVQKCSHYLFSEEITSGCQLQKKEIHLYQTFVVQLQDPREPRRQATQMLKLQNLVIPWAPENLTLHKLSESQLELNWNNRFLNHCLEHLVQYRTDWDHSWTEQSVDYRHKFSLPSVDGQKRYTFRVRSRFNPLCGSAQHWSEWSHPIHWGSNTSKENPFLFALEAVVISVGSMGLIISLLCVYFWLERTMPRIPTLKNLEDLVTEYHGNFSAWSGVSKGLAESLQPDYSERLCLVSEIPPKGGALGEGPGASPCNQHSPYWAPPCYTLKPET

Chain of IL-2 receptor signaling complex on primary human Treg cells (IL-2Rα expressing; IL-2Rαβγ) (human) (P01589 22-272, chain 1 of 3): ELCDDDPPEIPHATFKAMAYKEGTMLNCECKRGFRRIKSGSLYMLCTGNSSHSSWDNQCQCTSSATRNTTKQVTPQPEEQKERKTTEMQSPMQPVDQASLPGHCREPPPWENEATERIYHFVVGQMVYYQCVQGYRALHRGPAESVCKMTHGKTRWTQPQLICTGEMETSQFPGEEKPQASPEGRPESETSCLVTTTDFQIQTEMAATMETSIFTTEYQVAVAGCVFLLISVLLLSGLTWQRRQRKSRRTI
Chain of IL-2 receptor signaling complex on primary human Treg cells (IL-2Rα expressing; IL-2Rαβγ) (human) (P14784 27-551, chain 2 of 3, further chain): as the sequence (P14784 27-551, chain 1 of 2) above
Chain of IL-2 receptor signaling complex on primary human Treg cells (IL-2Rα expressing; IL-2Rαβγ) (human) (P31785 23-369, chain 3 of 3, further chain): as the sequence (P31785 23-369, chain 2 of 2, further chain) above
Chain of S127_30kD (P60568 other isoform, or with tags, fused parts or gaps limits assumed): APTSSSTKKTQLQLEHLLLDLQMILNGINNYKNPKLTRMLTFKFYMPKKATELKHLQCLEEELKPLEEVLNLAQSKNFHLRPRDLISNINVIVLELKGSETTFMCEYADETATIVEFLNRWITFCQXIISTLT

EC50 for pSTAT5 signaling, Treg cells [1]	EC50 for pSTAT5 signaling, CD8+ T cells [2]	EC50 for pSTAT5 signaling, NK cells [2]	Substance
150	–	–	S127_30kD (from UniProt P60568 21-153) (ligand)
11100	1.5e+07	2.31e+06	N88R (from UniProt P60568 21-153) (ligand)
176000	1.25e+07	2.78e+06	N88R/D109_30kD (from UniProt P60568 21-153) (ligand)
142	102000	20500	V91K (from UniProt P60568 21-153) (ligand)
